Results published in patent US8119766 (UNIVERSITY OF IOWA RESEARCH FOUNDATION, dated 2012).
Values belong to the molecule of their own block, whether it stands above or below them.

Columns and labels:
[1] = molecular target: full-length α-DG-IgG Fc fusion protein (DGFc5), secreted form from conditioned medium (human); experiment: solid-phase binding of laminin-1, nonlinear regression (FIG. 8C)
[2] = molecular target: full-length α-DG-IgG Fc fusion protein (DGFc5), secreted form from conditioned medium (human); experiment: solid-phase laminin-1 binding assay, nonlinear regression (FIG. 9C)
[3] = molecular target: LARGE-modified DGFc5 (human); experiment: as above
laminin-1 [4] = molecular target: T1, laminin-1 (mouse, UniProt P19137 25-3083; P02469 22-1786; P02468 34-1607); experiment: solid-phase binding of laminin-1, nonlinear regression (FIG. 8C)
T1 construct: also called mouse EHS laminin-1; biotinylated laminin-1

laminin-1 [5] = molecular target: T1, laminin-1; experiment: laminin-1 overlay, with LARGE co-expression
laminin-1 [6] = molecular target: T1, laminin-1; experiment: laminin overlay

Molecule: laminin-1 (from UniProt P19137 25-3083; P02469 22-1786; P02468 34-1607) (ligand)
Kd [1]: 1.1 nM
Kd [2]: 3.1 nM
Kd [3]: 1.6 nM

B1: native α-DG (receptor, rabbit, UniProt Q28685 30-653, looked up)
chain: HWPSEPSEAVRDWENQLEASMHSVLSDLHEALPTVVGIPDGTAVVGRSFRVTIPTDLIGSSGEVIKVSTAGKEVLPSWLHWDPQSHTLEGLPLDTDKGVHYISVSAAQLDANGSHIPQTSSVFSIEVYPEDHSEPQSVRAASPDLGEAAASACAAEEPVTVLTVILDADLTKMTPKQRIDLLHRMQSFSEVELHNMKLVPVVNNRLFDMSAFMAGPGNAKKVVENGALLSWKLGCSLNQNSVPDIRGVEAPAREGTMSAQLGYPVVGWHIANKKPPLPKRIRRQIHATPTPVTAIGPPTTAIQEPPSRIVPTPTSPAIAPPTETMAPPVRDPVPGKPTVTTRTRGAIIQTPTLGPIQPTRVSDAGTVVSGQIRATVTIPGYVEPTAVATPPTTTTKKPRVSTPKPATPSTDSSATTTRRPTKKPRTPRPVPRVTTKAPITRLETASPPTRIRTTTSGVPRGGEPNQRPELKNHIDRVDAWVGTYFEVKIPSDTFYDKEDTTTDKLKLTLKLREQQLVGEKSWVQFNSNSQLMYGLPDSSHVGKHEYFMHATDKGGLSAVDAFEIHVHKRPQGDKAPARFKAKFVGDPAPVVNDIHKKIALVKKLAFAFGDRNCSTVTLQNITRG
modifications: native glycosylation; sites not stated
notes: mature; also called native α-dystroglycan purified from rabbit skeletal muscle
Kd (laminin-1 [4]): 0.4 nM

Other lines, results leading:

binding result (laminin-1 [5]): no binding
B2: DGFc6, secreted form (Fc fusion, UniProt Q28685 317-653, looked up)
chain: TPTPVTAIGPPTTAIQEPPSRIVPTPTSPAIAPPTETMAPPVRDPVPGKPTVTTRTRGAIIQTPTLGPIQPTRVSDAGTVVSGQIRATVTIPGYVEPTAVATPPTTTTKKPRVSTPKPATPSTDSSATTTRRPTKKPRTPRPVPRVTTKAPITRLETASPPTRIRTTTSGVPRGGEPNQRPELKNHIDRVDAWVGTYFEVKIPSDTFYDKEDTTTDKLKLTLKLREQQLVGEKSWVQFNSNSQLMYGLPDSSHVGKHEYFMHATDKGGLSAVDAFEIHVHKRPQGDKAPARFKAKFVGDPAPVVNDIHKKIALVKKLAFAFGDRNCSTVTLQNITRG
notes: domain: mucin-like domain and C-terminal domain; Tested with and without LARGE co-expression; not shown: IgG Fc portion

binding result (laminin-1 [6]): no binding
B3: DGFc2 prepared from cell lysate (Fc fusion, UniProt Q28685 30-316, looked up)
chain: HWPSEPSEAVRDWENQLEASMHSVLSDLHEALPTVVGIPDGTAVVGRSFRVTIPTDLIGSSGEVIKVSTAGKEVLPSWLHWDPQSHTLEGLPLDTDKGVHYISVSAAQLDANGSHIPQTSSVFSIEVYPEDHSEPQSVRAASPDLGEAAASACAAEEPVTVLTVILDADLTKMTPKQRIDLLHRMQSFSEVELHNMKLVPVVNNRLFDMSAFMAGPGNAKKVVENGALLSWKLGCSLNQNSVPDIRGVEAPAREGTMSAQLGYPVVGWHIANKKPPLPKRIRRQIHA
notes: domain: N-terminal domain; About 65 kDa; also called DGFc2 (cell lysate); not shown: IgG Fc portion

binding result (laminin-1 [6]): no binding
B4: secreted DGFc2 from cells cultured with CMK (Fc fusion, UniProt Q28685 30-316, looked up)
chain: B3 chain
notes: domain: N-terminal domain; Migrated at the same size (~65 kDa) as DGFc2 from cell lysate; also called DGFc2 (CMK-treated, secreted); not shown: IgG Fc portion
